Reference: the nanobody polyreactivity screen of Harvey et al. (2022)

Assay: yeast display, Sf9 membrane polyspecificity reagent, FACS + sequencing; frameworks hold sequencing errors
Procedure, shortened: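 A nanobody's polyreactivity label depends on the gate it was sorted from. Yeast display cells were stained with 10% biotinylated, detergent-solubilized Sf9 membrane reagent for 1 hour at 4 °C, enriched on streptavidin microbeads and sorted by FACS. The low and high (top ~1%) gates were set on anti-HA fluorescence for expression and streptavidin fluorescence for reagent binding.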

Sequence | polyreactivity (PSR sort gate)
QVQHVESGGGLVQAGGSLRLSCAASGSTFTTNAMGWYRQAPGKERELVAAITASGGRTYYADSVKGRFTISRDNAKNTVYLQMNSLKPEDTAVYYCAADSGNEYDYWGQGTQVTVSS | low polyreactivity
QVQHVESGGGLVQAGGSLRLSCAASGSTFWYNAMGWYRQAPGKERELVAAISYSGGRTYYADSVKGRFTISRDNAKNTVYLQMNSLKPEDTAVYYCNADSRYGGDYWGQGTQVTVSS | low polyreactivity
QVQHVESGGGLVQAGGSLRLSCAASGSTFYRYTMGWYRQPPGKEREFVATITGRGGSTYADSVKGRFTISRDNAKNTVYLQMNSLKPEDTAVYYCAKRQTYREYDYWGQGTQVTVSS | low polyreactivity
QVQHVESGGGLVQAGGSLRLSCAASGSTIRNYAMGWYRQAHGKERELVAAISSGGRTYYADSVKGRFTISRDNAKNPVYLQMTSLKPEDTAVYYCAARVYYWSFAGILYTPTGGYWGQGTQVTVSS | high polyreactivity
QVQHVESGGGLVQAGGSLRLSCAASGSTQTRNPMGWYRKAPGKERELVAAITQRGGSTYYADSVKGRFTISRDNAKNTVYLQMNSLKPEDTAVYYCAKVPSVKYRSIWVLPEYGWGQGTQVTVSS | low polyreactivity
QVQHVESGGGLVQAGGSLRLSCAASGTIFTVYAMGWYRQAPGKERELVAAITRNGGRTYYADSVKGRFTISRDNAKNTVYLQMNSLKPEDTAVYFCAAPGLYSRLDYWGQGTQVTVSS | high polyreactivity
QVQHVESGGGLVQAGGSLRLSCAASGYIFSRYRGWYRQAPGTERELVAAITRGGVSTYYADSVKGRFTISRDNAKNTVYLQMNSLKPEDTAVYYCATGRPVYYVASYDYDYWGQGTQVTVSS | low polyreactivity
QVQHVESGGGLVQAGGSLRLSCAASGYIFYTYAMGWYRQAPGKERELVAGINRGDSTNYADSVKGRFTISRDNAKNTVYLQMNSLKPEDTAVYYCNARQRTYYRTHRIRHKGNGYWGQGTQVTVSS | low polyreactivity
QVQHVESGGGLVQAGGSLRLSCAASGYTFGYYAMGWYRQAPGKERELVASITERGGSTYYADSVKGRFTISRDNAKNTVYLQMNSLKPEDTAVYYCAADWDPSWWLFPTSSYDYWGQGTQVTVSS | low polyreactivity
QVQHVESGGGLVQAGGSLRLSCAASGYTFYIYPMGWYRQAPGKERELVATISSSGGGTYYADSVKGRFTISRDNAKNTVYLQMNSLKPEETAVYYCAADSWRYVAEGLWREYDYWGQRTQVTVSS | low polyreactivity
QVQHVESGGGLVQAGGSLRLSCAASGYTYDPNAMGWYRQAPGKERELVAAISRIGGSTYYADSVKGRFRISRDNAKNTVYLQMNSLKREDTAVYYCAQEYYDGYFPTFDYDYWGQGTQVTVSS | low polyreactivity
QVQHVESGGGLVQAGGSLRLSCAASVRTFYTYAMGRDRQAPGKERELVAAISLSGTRTYYADSVKGRFTISRDNAKNTVYLQMNSLNPEDTAVYYCAADRFNKPYYYWGQGTQVTVSS | high polyreactivity
QVQHVESGGGLVQAGGSLRLSCAASVSTFEYYAIGRYRQAPGKERELVASISSGGSTYYADSVKGRFTISRDNAKNTVYLQMNSLKPEDTAVYYCAADSYYGYEYWGQGTQVTVSS | low polyreactivity
QVQHVESGGGLVQAGGSLRLSCASSGFILEPYGMGWYRPAPGKERELVAAITSGASTYYADSVKGRFTISRDNAMNTVYLQMNILKPEDTAVYYCAVDPYSTYSEYDSWGQGTQVTVSS | low polyreactivity
QVQHVESGGGLVQAGGSLRLSCASSGITFPDYSMGWYRQAPGKERELVAGISSTGDSTYYADSVKGRFTISRDNGKKTVYLQMNSLKPEDTAVYYCNAAQERPIIILFSKYDYWGQGTQVTVSS | low polyreactivity
QVQHVESGGGLVQAGGSLRLSCASSGSTFWFYAMGWYRQAPGKERELVATINWYGGTTNYADSVKGRFTISRDNAKNSVYLQMYSLKPEDTADYYGAGYQALTYGSYEYWGQGSQVTVSS | low polyreactivity
QVQHVESGGGLVQAGGSLRLSCAVSGRTFYYYAMGWYRQAPGKERELVAAISSSGGSTYYADSVKGRFTISRDNAKNTVYLQMNSLKPEDTAVYYCAAAARKVSVSRYLYYYWGQGTQVTVSS | high polyreactivity
QVQHVESGGGLVQAGGSLRLSCDASGRIFLYKAMGWYRQAPGKERELVAAIDGGGTTYADSVKGRFTISRDNAKNTVYLQRNSLKPEDTAVYYCAADWYYQYSIYRYGYWGQGTQVTVSS | low polyreactivity
QVQHVESGGGLVQAGGSLRLSCPASGSIFARYAMGWYRQAPGKERELVAAITSGGITNYADSVMGRFTISRDNAKNTVYLQMISLNPEDTAVYYCAARRSGRVRYDYWGQGTQVTVSS | high polyreactivity
QVQHVESGGGLVQAGGSLRLSCPASGSTLYGYAMGWYRQEPGKESELVAAINTGASTNYADSVKGRFTISRDNAKNTVYLQMNSLKPEDTAVYYCAASYSLTFWDKDDYWGQGTQVTVSS | low polyreactivity
QVQHVESGGGLVQAGGSLRLSSAASGRIFKRNALGWYRQAPGKEREMVATISGSGGSTYYADSVKGRFTISRDNAKNTVYLQMNSLNPEDTAVYYCAAGYKSYWRLSSPKMDYWGQGTQVTVSS | high polyreactivity
QVQHVESGGGLVQAGGSLRLSSAASGRTFYYNAMGWYRQAPGKERELVASITITDSTNYADSVKGRFTISRDNAKNTVYLQMNSLKPEDTAVYYCAKRGWGTSFYLSDYWGQGTQVTVSS | low polyreactivity

Sequence | polyreactivity (PSR sort gate)
QVQHVESGGGLVQAGGSLRLTCAATGRIFYTNTMGWYRQAPGKEREFVAAISWRGGSTYYADSVKGRFTISRDNAKNTVYLQMNSLKPEDTAVYYCAKTRTYFLSRYVSWGQGTQVTVSS | high polyreactivity
QVQHVESGGGLVQAGGSLSLICAASGSIFCYYAMGWYRKAPGKERELVAAIDSGGSTYYADSVKGRFTISRDNAKNTVYLQMNILKPEDTAVYYCAAGVSSFSPYDSWGQGTQVTVSS | low polyreactivity
QVQHVESGGGLVQAGGSLSLSCAASGSTFKHYAMGWYRQAPGKERELVAAISSRGGSTHYADSVKGRFRISRDNAKNTVYLQMNSLKPEDTAVYYCARDTDPQSSRSSDYDYWGQGTQVTVSS | low polyreactivity
QVQHVESGGGLVQAGGSLSLSCADSGFIFRYYAMGWYRQAPGKERELDAAISWSGGSTYYADSVKGRFTISRDNSKNTVYLQMNSLKPEDTAVYYCAADRYAILFYAEDYWGQGSQVTVSS | low polyreactivity
QVQHVESGGGLVQAGGSQRLSCAASGSIFDYYAMGWYRQAPGKERELVAAISTSTSSTYYADSVKGRFTISRDNAKNTVYLQLNSLKPEDTAVYYCAAVGESQPEYPGYDYWGQGTQVTVSS | low polyreactivity
QVQHVESGGGLVQAGGSRRLSCAASGSTFYGYAMGWYRQAPGKEREFVAAITTSGGSTYYADSVKGRFTISRDNANNTVYLQMNSLKPEDTAVYYCAADGFYYDDGYWGQGTQVTVSS | low polyreactivity
QVQHVESGGGLVQAGRSLRLICAASGSTFLEYAMGWYRQAPGKERELVASISWSGGSTNYADSVKGRFTFSRDNAKNTVYLQMNSLKPEDTAVFYCNARGWSVVSSRYGYWGQGTQVTVSS | low polyreactivity
QVQHVESGGGLVQARGSLRLSCSASGVIFYNYAMGWSRQAPGKEREFVAAISGSGGSTYYADSVKGRFTISRDNAKNTVYLQMNSLKPEDTAVYYCAVRQRYGPARYDYWGQGTQVTVSS | high polyreactivity
QVQHVESGGGLVQGGGSLRLSCAASGSTFYAYAKGWYRQARGKERELVAVITSSGSTYYADSVKGRFTISRDNAKNTDYLQMNSLKAEDTAVYYCAAKRLSQSRRTQYRTRYQPMYYWGQGTQVTVSS | high polyreactivity
QVQHVESGGGVVQAGGSLRLSCAASGSIFSRYTMGWYRQAPGKERELVAAITSSGGRTYYADSVKGRFTISRDNAKNTVYLQMNSLKPEDTSVYYFDARIPKQQGYGYWGQGTQVTVSS | high polyreactivity
QVQHVESGGRLVQAGGSLRLICAASGRTFAPYAMGWYRQAPGKVRELVARITWSGTDTYYADSVKGRFTISRDNAKNTVYLQMNSLKPEDTAVYYCAADARYSRRYYYWGEGTQVTVSS | low polyreactivity
QVQHVESGRGLVQAGCSLPLSCAASGFTFLAYAMGWYRQAPGKETELVAAISRSGGRTYYADSVKWRFTISRDNAKNTVYLQMNSLKPEDTAVYYCAKRVLTHPGDDYWGQGAQVTVSS | high polyreactivity
QVQHVESGRGLVQAGGSLRLSCAASGSIQGGNARGCSSQAPGKESELVAAITFSGGGTYYADSVKGRLTISRDNAKNTVYLQMNSVKPEDTAVYYCAADIDGYTYEFDYWGQGTQVTVYS | low polyreactivity
QVQHVESGRGLVQAGVSLRLSCAASGIFFGAYAMGWYRQAPGKEREFVAAISRSGGSTYYADSVKGRFTISRDYAKNTVYFQKNSLKPEDSAVYYCNALAKYHYYLGQGTQVTVSS | high polyreactivity
QVQHVESGVGLVQAVGSLRLSCAASGLTFKYYAMGWYRQAAVKEWELVARLSRTGGSTNYADSVKGRFTISRDNAKNTLYLQMNSLKPEDTAVSYCNTQFSYSSAPPFWYTKMYYWGQGTQVTVSS | high polyreactivity
QVQHVESRGGLVQAGGSLRLRCAASGRIFSHYAMGWYRQAPGKERELVAAITSDGSTNYADSVKGRFTISRDNAKNTVYLQMNSLKPEDTAVYYCAKYVHIPYYYYLFGSYDYWGQGSQVTVSS | low polyreactivity
QVQHVESRGGLVQAGGSLRLSCAASGIIFSRNAMGWSRKAPGKERELLSGITSSGGTTYYADSVKGRFTISRDNAKNTVYLQMNSLKAEDTAVYYCAAYSTQNYSYRRYYYWGQGTQVTVSS | high polyreactivity
QVQHVESRGGLVQAGGSLRLSCAASGLIFTCNAMGWYRQAPGKERELVAAISTGGSTSYADSVKGRFTIARDNAKNTVYLQMNSLKPEDTAVYYCARDSSIWSHGSWYDYWGQGTQVTVSS | low polyreactivity
QVQHVESRGGLVQAGGSLRLSCAASGRTFFNNVMGWYRQAPGKERELVAAISKSGTRTYYADSVKGRFTISRDNAKNTVYLQMNSLKPEDTAVYYCATGQYLRTSRYYYWGQGTQVTVSS | high polyreactivity
QVQHVESRGGLVQAGGSLRLSCAASGRTFFWYAMGWYRQAPGKERELVADISSSGGSTYYADSVKGRFTISRDNAKNTVYLQMNSLKPEDTAVYYCAALSPWWRGGYNYWGQGTQVTVSS | high polyreactivity
QVQHVESRGGLVQAGGSLRLSCAASGSIFGYYGMGWYRQAPGKERELVATITSGGSTNYADSVKGRFTISRDNAKNTVYLQMNSLKPEDTAVYYCARQYGYQPERYGYWGQGTQVTVSS | low polyreactivity
